Biological target: T1, human recombinant Tau-441 (human, UniProt P10636-8 1-441)
T1 construct: Commercial recombinant protein; source: bought: WAKO
Assay: SPR; Biacore 2000; recombinant human Δ1–22 L-PGDS amine-coupled to a CM5 chip; Tau-441 flowed at 3, 2 and 1 nM; dissociation on washing with Dulbecco's phosphate-buffered saline; Kd from the sensorgrams with BIAevaluation 3.1
Conditions: both partners purified

T1 sequence (P10636 other isoform, or with tags, fused parts or gaps): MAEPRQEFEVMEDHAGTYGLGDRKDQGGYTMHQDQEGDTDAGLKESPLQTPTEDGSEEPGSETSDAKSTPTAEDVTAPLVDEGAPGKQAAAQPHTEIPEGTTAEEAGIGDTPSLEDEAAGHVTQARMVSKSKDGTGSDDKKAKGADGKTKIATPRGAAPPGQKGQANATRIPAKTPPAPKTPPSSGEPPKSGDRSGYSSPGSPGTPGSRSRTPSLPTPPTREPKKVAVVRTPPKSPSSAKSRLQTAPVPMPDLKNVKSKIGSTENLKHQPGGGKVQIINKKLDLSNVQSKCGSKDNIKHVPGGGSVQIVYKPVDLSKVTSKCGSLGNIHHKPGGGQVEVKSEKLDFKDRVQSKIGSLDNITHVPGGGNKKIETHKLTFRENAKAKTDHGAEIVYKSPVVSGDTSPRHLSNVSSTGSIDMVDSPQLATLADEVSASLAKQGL

Kd: 910 µM
B1: human recombinant Δ1–22 L-PGDS (lipocalin-type prostaglandin D synthase without the signal sequence) (enzyme, UniProt P41222 23-190, looked up)
chain: APEAQVSVQPNFQQDKFLGRWFSAGLASNSSWLREKKAALSMCKSVVAPATDGGLNLTSTFLRKNQCETRTMLLQPAGSLGSYSYRSPHWGSTYSVSVVETDYDQYALLYSQGSKGPGEDFRMATLYSRTQTPRAELKEKFTAFCKAQGFTEDTIVFLPQTDKCMTEQ
notes: Cloned into pGEX-2T as a GST fusion and cut with thrombin; also called recombinant human ∆1–22 L-PGDS; recombinant human L-PGDS; source: E. coli BL21 (DE3), purified (glutathione-Sepharose 4B, thrombin digestion, gel filtration on HiLoad Superdex 75)

Source: article PMC11024442, “Lipocalin-type prostaglandin D synthase: a glymphopathy marker in idiopathic hydrocephalus” (Frontiers in Aging Neuroscience, 2024)
